Laboratory results reported in patent publication US20020147326A1, “Hexameric fusion proteins and uses therefor” (SmithKline Beecham Corporation, priority 1996, published 2002).

Experiments:
Parameters in all cases: native leader and extracellular domain peptide of CD28 and CD80 were grafted onto a human IgG1 heavy chain Fc region; human IgG1 Fc (hinge/CH2/CH3); made in house; host or cells: CHO cells
CD28-Ig [1] = biological target: T1, CD28-Ig (Homo sapiens, UniProt P10747); assay: ELISA binding of biotinylated fusion proteins to immobilized CD28-Ig; conditions: for binding to immobilized CD28-Ig: biotinylated protein, ELISA
Description: For this assay format, the CD80-Igαtp protein was biotinylated for simplicity of assay and for ease of detection since the CD28 protein absorbed to the plate wells was also a human Ig fusion construct. Biotinylation was carried out essentially as described in Avidin-Biotin Chemistry: A handbook, M. D. Savage et al., Pierce Chemical Company (1992). […] All steps of the assay after coating were carried out at room temperature.
The wells of 96 well microtiter plates (Immunlon 4, Dynatech Laboratories) were coated with CD28-Ig (1, 2, or4 μg/ml) in 100 μl/well of 0.1 M sodium bicarbonate, pH 9.4 and incubated overnite @4° C. The wells were washed with PBS (phosphate buffered saline) and blocked with 0.5% gelatin in PBS for 1 hour. Following an additional PBS wash, biotinylated CD80-Igαtp was serially diluted in PBS containing 1 mg/ml BSA, 0.05% Tween directly in the wells in a final volume of 0.1 ml and incubated for 1 hour. The wells were washed with PBS and bound CD80-Igαtp protein was measured by the addition of 0.1 ml of strepavidin-HRP (streptavidin conjugated with horseradish peroxidase (Southern Biotech)) at a 1:2000 dilution for 1 hour, followed by washing and color development with 100 μl ABTS substrate (Kierkegaard and Perry Laboratories Inc., Maryland) and measurement of absorbance at 405 nm. In some cases the color reactions were arrested by addition of 100 μl of 1% SDS prior to measurement of absorbance. In this figure, “CD28-Fc”, “CTLA4-Fc”, and “B7-FcA” denote CD28-Ig, CTLA4-Ig, and CD80-Igαtp, respectively.

CD28-Ig [2] = biological target: T1, CD28-Ig; assay: Surface plasmon resonance (BIAcore) on immobilized CD28-Ig; assay type: binding; conditions: for dissociation from CD28-Ig coated surface: BIAcore, 10 ul/min
Description: Covalent attachment was achieved by firstly activating the surface with a 1:1 mixture of 0.1 M solution of N-hydroxysuccinamide and 0.1 M 1-ethyl-3-(3-dimethylaminopropyl)carbodiimide. A solution of CD28-Ig 50 ug/ml in 0.01 M sodium acetate pH 4.7 was then passed over the surface. Unreacted N-hydroxysuccinamide esters were then deactivated with 1 M ethanolamine pH 8.5. The surface was equilibrated with running buffer composed of 20 mM HEPES 150 mM NaCl, pH 7.2, 3 mM EDTA and 0.005% Tween 20.
For comparison of CD80-Igαtp and CD86-Igαtp binding with immobilized CD28-Ig, solutions of CD80-Igαtp and CD86-Igαtp (5 ug/ml) were prepared in running buffer described above. Sample solutions were injected (60 ul) at 10 ul/min. Between samples, the surface was regenerated with a 30 ul injection of Gentle elution buffer (Pierce Chemicals, Rockville, Ill.).

CD28-Ig [3] = biological target: T1, CD28-Ig; assay: Isothermal titration calorimetry, binding to CD28-Ig in solution
Description: The solution binding properties of the hexameric and standard Ig fusion proteins of CD80 and CD86 were compared using isothermal titration calorimetry, essentially as described previously for other proteins [K. Johanson et. al., J. Biol. Chem, 270: 9459-9471 (1995), and references therein].
This lower affinity for CD28 than for CTLA4 is in agreement with other reports [P. S. Linsley et. al., Immunity 1: 793-801 (1994)].

Substance	binding to immobilized CD28-Ig (CD28-Ig [1])	dissociation from CD28-Ig coated surface (CD28-Ig [2])	interaction with CD28-Ig in solution by calorimetry (CD28-Ig [3])	saturation of OD405 (CD28-Ig [1]; biotinylated CD80-Igαtp at 50 μg/ml)	off-rate compared with CD80-Igαtp (CD28-Ig [2]; 5 ug/ml)
CD80-Ig: CD80 leader and extracellular domain grafted onto human IgG1 heavy chain Fc region; monomeric Ig fusion (Ig homodimer) [reference compound]	little binding and only at much higher concentrations	dissociates very rapidly	not detected	–	–
CD80-Igαtp: CD80 leader and extracellular domain linked to human IgG1 hinge/CH2/CH3 and terminating in human IgA1 tailpiece (αtp)	concentration dependent binding	about three orders of magnitude slower	did not show detectable binding	about 50%	–
CD86-Igαtp: CD86 leader and extracellular domain linked to human IgG1 Fc and terminating in human IgA1 tailpiece (αtp)	good binding	dissociates slowly	did not show detectable binding	–	higher than that for the CD80 construct
